Results on twelve molecules are retold here after patent publication US20210324011A1 (University of Washington, published 2021).

The chains are these.
B1: DHF25 (designed binder)
chain: ARVVLKRVEKLVKEAETLLLVAIMKGSEEDLEKALRTAEEAAREAKKVLVLAVVVGDPEVALRAVELVVRVAELLLLIAIISGSEEALERALRVAEEAARLAKRVLELAENQGDPEVALRAVELVVRVAELLLMIAKVSGSEEALERALRVAEEAARLAKRVLELAEKQGDPEVARRAVELVKRVAELLERIARESGSEEAKERAERVREEALQLQARVMNLREREG
notes: vector pCDB24 (SUMO fusion); forms a homo-polymer
B2: DHF8 (designed binder)
chain: MGLELSLVINLVLLANLLHLQAMMKGSSEDLEKALRTAEEAAREAKKVLEQAEKNGDPEVALRAVELVVIVAITLLLIAISSGSEEALERALRVAEEAARLAKRVLELAEKAGDPEVALRAVELVVRVAELLLRIAKESGSEEALERALRVAEEAARLAKRVLELAEKQGDPEVARRAVELVKRVAELLERIARESGSEEAKERAERVREEARELQERVKELREREGLE
notes: vector pET28b; forms a homo-polymer
B3: DHF9 (designed binder)
chain: MGLILELAKLSLERARLASEAGDRVEFKIAAEKALLLAKVLVLQAKKEGDPELVLEAAKVALRVAELAAKNGDKEVFKKAAESALEVAKRLVEVASKEGDPELVLEAAKVALRVAELAAKNGDKEVFKKAAESALEVAKRLVEVASKEGDPELVEEAAKVAEEVRKLAKKQGDEEVYEKARETAREVKEELKRVREEKGDLE
notes: as for B2
B4: DHF91 (designed binder)
chain: MGDERRELEKVAVKAIMAAMLGNTDEVREQLQRALEIARESGTLLAVVLALEVVARVAIEAARKGNTDAVREALEVALEIARESGTKVAVVLALEVVARVAIEAARRGNVLAVILALEVALEIARESGTEEAALLAVEVVVRVSDEAKKQGNAVAVAVAEQVAKKILE
notes: vector pET28b; forms a homo-polymer; cryoEM PDB 6E9X
B5: DHF20 (designed binder)
chain: MDEMKARLLIERAKEAAERAQEAAERTGDPLVRLLAEMLKRLAQEAAEEVKRDPSSSDVNEALKLIVEAIEAAVRALEAAERTGDPEVRELASELVRLAVEAAEEVQRNPSSSDVNEALKLIVEAIEAAVRALEAAERTGDPRVRELARELVRLAVEAAEEVQRNPSSVEVALALLKIVKAIEEAVESLREAEESGDPMKRLEAALRVREAVERAEEVQRN
notes: as for B1
B6: DHF16 (designed binder)
chain: MGQILMKAKLSLVKAAEASLSGDELEFRIAAETALVLAKLLVLQAKKKGDPELVLEAAKVALRVAELAAKNGDKEVFKKAAESALEVAKRLVEVASKEGDPELVLEAAKVALRVAELAAKNGDKEVFKKAAESALEVAKRLVEVASKEGDPELVEEAAKVAEEVRKLAKKQGDEEVYEKARETAREVKEELKRVREEKGLE
notes: as for B2
B7: DHF107 (designed binder)
chain: MGPEEILERAKESLERAREASERGDEMEFRIAAQKALELARQLVLQALAEGDPELVLEAAKVALRVAELAAKNGDKEVFKKAAESALEVAKVLVLVASKEGKPELVLEAAKVALRVAVLAAMNGDKEVFKKAAESALEVAKRLVEVASKEGDPELVLEAAKVAEKVRVLAAVQGDEEVYEKARETAREVKEELKRVMEEKGLE
notes: as for B2
B8: DHF17 (designed binder)
chain: MGHHHHHHSSGSSEKEELRERLVEIVVALAKAKGDDTELAREAAREAFELVREAAERAGIDSSMVLILAIQLILEVVANAAKEGYDISLAALAAAEAFKRVAEAAKRAGITSSMVLILAIRLIKEVVENAQREGYDISLAALAAAEAFKRVAEAAKRAGITSSMTLMRAIEEIRKRVEEAQREGNDISEAARQAAEEFIIKAVVLKARGDV
notes: as for B2
B9: DHF82 (designed binder)
chain: MGPEEILESAKESLERAREASEAGLELVFRLAAEVALELAKRLVEQAKKEGDPELVLEAAKVALRVAELAAKNGDKEVFKKAAESALEVAKRLVEVASKEGDPELVLEAAKVALRVAELAAKNGDKEVFKKAAESALEVAKRLVEVASKEGDPTLVIMALIVAEEVIKLASKQGDELVMLKAVETAKEVKEEAMRVMLEKGLE
notes: as for B2
B10: DHF119-GFP (designed binder)
chain: MGPEDELKRVEKLVKEAEALLIVAKIKGSKRDLEKALRTAEEAAREAVKVLVQALLEGDPEVALRAVELVVRVAELLLRIAKESGSREALLRALIVAEEAAKLAKMVLELAEKQGDPEVALRAVELVVRVAELLLRIAKESGSEEALERALRVAEEAARLAKRVLELAEEQGDPLVAKMAVELVKRVAELLERIARESGSEEAKERAERVREEARELQERVKELREREGLE
notes: not shown: green fluorescent protein
B11: DHF58-GFP (designed binder)
chain: MELLRVVMLVKEAEELLTLAVIKGSEDDLQKALRTAVEAAREAVKVLLQAVKRGDPEVALRAVELVVRVAELLLRIAKESGSELALKMALLVAEEAARLAKIVLELAEKQGDPEVALRAVELVVRVAELLLRIAKESGSEEALERALRVAEEAARLAKRVLELAEKQGDPEVARRAVELVKRVAELLERIARESGSEEAKERAERVREEARELQERVKELREREGLE
notes: expressed in E. coli; not shown: green fluorescent protein
B12: DHF119 (designed binder)
chain: B10 chain
notes: vector pET28b; forms a homo-polymer; cryoEM PDB 6E9Z

The first series concerns the molecule itself. The experiment in a line: negative stain EM; 1 = filaments observed (self-assembly). The text has this: The designs were expressed in Escherichia coli under the control of a T7 promoter and purified using immobilized metal affinity chromatography (IMAC). […] IMAC eluates were concentrated, and filament formation was monitored by negative stain electron microscopy (EM); insoluble designs were characterized by EM either directly in the initial insoluble fraction, or after solubilization in guanidine hydrochloride, IMAC, and subsequent removal of denaturant.
Negative Stain Electron Microscopy. Soluble fractions were concentrated and insoluble fractions were resuspended in buffer (25 mM Tris, 75 mM NaCl, pH 8) for EM screening. A drop of 6 μL (1 μl sample instantly diluted with 5 μl of buffer) was applied on negatively glow discharged, carbon-coated 200-mesh copper grids (Ted Pella, Inc.), washed with Milli-Q™ Water and stained using 0.75% uranyl formate as described previously (28). The screening was performed on either a 120 kV Tecnai Spirit™ T12 transmission electron microscope (FEI, Hillsboro, Oreg.) or a 100 kV Morgagni M268 transmission electron microscope (FEI, Hillsboro, Oreg.). Images were recorded on a bottom mount Teitz CMOS™ 4 k camera system. The contrast of the images was enhanced in the Fiji software (29) for clarity.
Turning to B1, the binding result is listed as “binds”.

B2: the binding result is listed as “binds”.

Regarding B3, the binding result is given as “binds”.

As for B4, the binding result is “binds”.

B5: the binding result is “binds”.

As for B6, the binding result was “binds”.

In the case of B7, the binding result is recorded as “binds”.

For B8, the binding result is listed as “binds”.

Regarding B9, the binding result is “binds”.

The next series deals with T1, DHF119_C6_anchor.
T1 construct: hexamer: avi-tag, monomer of designed hexamer 3H22, (GGS)5 linker, C cap of DHF119; also called anchor DHF119_C6
T1 chain: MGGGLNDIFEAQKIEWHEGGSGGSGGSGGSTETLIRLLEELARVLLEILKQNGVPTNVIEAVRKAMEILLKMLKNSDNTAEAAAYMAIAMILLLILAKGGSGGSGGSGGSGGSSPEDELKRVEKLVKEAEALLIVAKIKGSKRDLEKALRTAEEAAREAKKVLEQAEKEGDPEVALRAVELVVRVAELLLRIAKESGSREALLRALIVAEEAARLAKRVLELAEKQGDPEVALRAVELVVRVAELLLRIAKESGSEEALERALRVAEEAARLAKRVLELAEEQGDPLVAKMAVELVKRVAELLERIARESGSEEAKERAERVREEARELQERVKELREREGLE
Description: TIRF microscopy over 30 minutes.
Description: Filament Growth In Vitro. PEG-silane coated glass coverslips were attached to similarly-coated slides with strips of double-stick tape to make flow chambers. All incubations were at 25° C.
The background of the tif movies was subtracted using the software Fiji (29) with a ball radius of 5.0. The contrast was modified to reduce background noise to facilitate fiber identification. CellProfiler™ software (37) was used to identify and track fiber through the different time frames. The output files from CellProfiler™ provided the Major axis length for every fiber through all the movie.
In the case of B10, the binding result is on record as “binds”.

Another series deals with the molecule itself. The experiment in a line: fluorescence microscopy in living E. coli (self-assembly).
Consider B11, for which the binding result was “binds”.

The target in the next series is T1, DHF119_C6_anchor. Description: anchor on streptavidin-coated magnetic beads, microscopy.
Description: We sought to replicate this mechanism of control by designing multimeric anchor constructs, with multiple monomeric subunits held close to the relative orientations in the corresponding filaments by a fusion to designed homo-oligomers with the appropriate geometry (FIG. 14; one of the interaction interfaces is eliminated to restrict fiber growth in one direction). […] To study the kinetics of filament formation in vitro in more detail, we attached the anchors to glass slides, added monomers fused to yellow fluorescent protein (YFP) and monitored fiber formation by total internal reflection (TIRF) microscopy. The anchors seeded the rapid growth of multiple micron length fibers over 30 minutes (FIG. 4C; for analysis of growth kinetics of a second fiber see FIG. 15).
Consider B12, for which the binding result is reported as “binds”.
